From US20250002588A1

Biological target: ALK-1/BMPR-2 receptor pair of the PathHunter U2Os dimerization cells (DiscoverX 93-0962C3) (UniProt P37023)
Assay: cell-based or functional assay

ALK-1/BMPR-2 receptor pair of the PathHunter U2Os dimerization cells (DiscoverX 93-0962C3), sequence (P37023 22-503, chain 1 of 2): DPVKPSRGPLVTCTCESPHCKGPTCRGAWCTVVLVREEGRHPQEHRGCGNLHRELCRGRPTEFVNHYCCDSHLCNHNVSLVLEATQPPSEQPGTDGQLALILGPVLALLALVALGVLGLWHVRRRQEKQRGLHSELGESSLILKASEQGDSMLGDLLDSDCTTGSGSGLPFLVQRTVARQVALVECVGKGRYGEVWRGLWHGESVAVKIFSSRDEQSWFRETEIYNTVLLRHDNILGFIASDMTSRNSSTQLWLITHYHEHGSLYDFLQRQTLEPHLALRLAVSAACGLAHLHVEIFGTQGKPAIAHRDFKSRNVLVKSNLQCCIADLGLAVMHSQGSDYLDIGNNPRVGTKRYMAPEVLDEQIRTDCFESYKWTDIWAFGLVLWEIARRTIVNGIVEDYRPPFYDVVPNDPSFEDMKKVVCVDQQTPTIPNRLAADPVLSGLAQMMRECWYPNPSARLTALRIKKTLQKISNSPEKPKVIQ
ALK-1/BMPR-2 receptor pair of the PathHunter U2Os dimerization cells (DiscoverX 93-0962C3), sequence (Q13873 27-1038, chain 2 of 2, further chain): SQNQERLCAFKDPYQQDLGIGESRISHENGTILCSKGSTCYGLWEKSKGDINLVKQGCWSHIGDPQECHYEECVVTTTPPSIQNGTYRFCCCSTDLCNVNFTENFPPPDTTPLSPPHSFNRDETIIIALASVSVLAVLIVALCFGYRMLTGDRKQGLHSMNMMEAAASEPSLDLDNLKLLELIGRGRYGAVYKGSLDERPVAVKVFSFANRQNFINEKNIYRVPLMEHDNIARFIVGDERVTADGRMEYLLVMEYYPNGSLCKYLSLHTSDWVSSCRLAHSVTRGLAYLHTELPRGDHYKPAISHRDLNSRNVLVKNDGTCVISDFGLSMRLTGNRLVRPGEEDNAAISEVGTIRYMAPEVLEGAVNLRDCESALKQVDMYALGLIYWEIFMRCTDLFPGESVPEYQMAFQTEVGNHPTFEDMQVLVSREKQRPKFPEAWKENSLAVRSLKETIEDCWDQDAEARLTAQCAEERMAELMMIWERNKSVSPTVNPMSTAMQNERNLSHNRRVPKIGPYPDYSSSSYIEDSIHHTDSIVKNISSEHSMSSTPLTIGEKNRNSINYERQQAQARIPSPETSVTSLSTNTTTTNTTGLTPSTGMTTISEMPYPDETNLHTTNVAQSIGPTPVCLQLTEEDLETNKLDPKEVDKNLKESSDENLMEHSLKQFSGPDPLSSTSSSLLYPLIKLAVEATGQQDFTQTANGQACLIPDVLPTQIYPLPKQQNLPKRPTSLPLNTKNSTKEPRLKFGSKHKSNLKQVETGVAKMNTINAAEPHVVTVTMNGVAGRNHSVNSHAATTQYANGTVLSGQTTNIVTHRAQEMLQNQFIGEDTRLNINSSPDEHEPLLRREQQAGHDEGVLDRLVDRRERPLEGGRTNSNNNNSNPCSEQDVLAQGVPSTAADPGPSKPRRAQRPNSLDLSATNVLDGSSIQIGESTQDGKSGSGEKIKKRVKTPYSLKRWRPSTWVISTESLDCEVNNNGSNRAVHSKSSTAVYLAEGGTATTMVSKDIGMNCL

B1: BMP9 (ligand, UniProt Q9UK05 320-429, looked up)
chain: SAGAGSHCQKTSLRVNFEDIGWDSWIIAPKEYEAYECKGGCFFPLADDVTPTKHAIVQTLVHLKFPTKVGKACCVPTKLSPISVLYKDDMGVPTLKYHYEGMSVAECGCR
- % Emax BMP9: 100%
- EC50: 0.02 nM
- EMAX (RLU): 2.64e+06 RLU

B2: BMP10 (ligand, UniProt O95393 317-424, looked up)
chain: NAKGNYCKRTPLYIDFKEIGWDSWIIAPPGYEAYECRGVCNYPLAEHLTPTKHAIIQALVHLKNSQKASKACCVPTKLEPISILYLDKGVVTYKFKYEGMAVSECGCR
- % Emax BMP9: 97%
- EC50: 0.1 nM
- EMAX (RLU): 2.57e+06 RLU
